# Experimental data reported in paper PMC1817651, “Ets-2 and C/EBP-beta are important mediators of ovine trophoblast Kunitz domain protein-1 gene expression in trophoblast”.
# B1: Ets-2 consensus (dsDNA)
# DNA 1: CTAGGACCGGAAGTGGGAGT
# DNA 2: ACTCCCACTTCCGGTCCTAG
# B2: TKDP-1/4 (dsDNA)
# DNA 1: CTGATCTCACGACTCAGCCAGAATATTAAAAGCTC
# DNA 2: GAGCTTTTAATATTCTGGCTGAGTCGTGAGATCAG
# B3: TKDP-1/5 (dsDNA)
# DNA 1: CAGTGTGTCCATCCTCAGCATCCTCAGGAGCCCTC
# DNA 2: GAGGGCTCCTGAGGATGCTGAGGATGGACACACTG
# B4: TKDP-1/3 (dsDNA)
# DNA 1: TCCTCCCCTTGCCCACTCCCCTCCTTATCACCTGATCTCACGACTCA
# DNA 2: TGAGTCGTGAGATCAGGTGATAAGGAGGGGAGTGGGCAAGGGGAGGA
# B5: TKDP-1/6 (dsDNA)
# DNA 1: AGGAGCCCTCCTGCAAGGCC
# DNA 2: GGCCTTGCAGGAGGGCTCCT
# B6: TKDP-1/2 (dsDNA)
# DNA 1: CATGGGTAGGTAGGGAGGTTATGCAATAAACAGGACTGACTCAACTCCTCC
# DNA 2: GGAGGAGTTGAGTCAGTCCTGTTTATTGCATAACCTCCCTACCTACCCATG
# B7: TKDP-1/1 (dsDNA)
# DNA 1: ACAGATGCAGGAGGCATGGG
# DNA 2: CCCATGCCTCCTGCATCTGT
# Target: T1, ovEts-2-GST fusion (Ovis aries, UniProt A0ACI6RFA5 364-444)
# T1 sequence (A0ACI6RFA5 entry or part of it): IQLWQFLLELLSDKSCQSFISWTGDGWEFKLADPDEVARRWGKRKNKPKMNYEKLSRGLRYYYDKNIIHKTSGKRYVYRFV
# Assay: EMSA; anti-Ets-2 supershift; EMSA: 35 fmol probe, 2 ug Ets-2-GST or 10 ug JEG-3 extract, buffer per cited ref 23; pull-down: extract in 25 mM Tris-HCl pH 7.5, 150 mM NaCl, 0.5% Triton X-100, 0.5 mM DTT, 4 C overnight
# Settings: protein: recombinant; tags: GST; label: 32P; blunt; only sense strand given
row,Binder,binding result
1,B1,binds

# Target: T1, ovEts-2-GST fusion
# Assay: competition EMSA; 250-fold excess vs N1; EMSA: 35 fmol probe, 2 ug Ets-2-GST or 10 ug JEG-3 extract, buffer per cited ref 23; pull-down: extract in 25 mM Tris-HCl pH 7.5, 150 mM NaCl, 0.5% Triton X-100, 0.5 mM DTT, 4 C overnight
# Settings: protein: recombinant; tags: GST; blunt; only sense strand given
row,Binder,binding result
1,B2,no binding
2,B3,no binding
3,B4,no binding
4,B5,no binding
5,B6,no binding
6,B7,no binding
